Laboratory results as given in patent US20100196361A1, “Method of inhibition of vascular development using an antibody” (DYAX CORP., priority 2003, published 2010).

T1: human Tie1 Fc (Homo sapiens, UniProt P35590)
T1 construct: selected against the Tie1 extracellular domain fused to human Fc or to a histidine purification tag
T1 sequence (P35590 22-759 limits assumed): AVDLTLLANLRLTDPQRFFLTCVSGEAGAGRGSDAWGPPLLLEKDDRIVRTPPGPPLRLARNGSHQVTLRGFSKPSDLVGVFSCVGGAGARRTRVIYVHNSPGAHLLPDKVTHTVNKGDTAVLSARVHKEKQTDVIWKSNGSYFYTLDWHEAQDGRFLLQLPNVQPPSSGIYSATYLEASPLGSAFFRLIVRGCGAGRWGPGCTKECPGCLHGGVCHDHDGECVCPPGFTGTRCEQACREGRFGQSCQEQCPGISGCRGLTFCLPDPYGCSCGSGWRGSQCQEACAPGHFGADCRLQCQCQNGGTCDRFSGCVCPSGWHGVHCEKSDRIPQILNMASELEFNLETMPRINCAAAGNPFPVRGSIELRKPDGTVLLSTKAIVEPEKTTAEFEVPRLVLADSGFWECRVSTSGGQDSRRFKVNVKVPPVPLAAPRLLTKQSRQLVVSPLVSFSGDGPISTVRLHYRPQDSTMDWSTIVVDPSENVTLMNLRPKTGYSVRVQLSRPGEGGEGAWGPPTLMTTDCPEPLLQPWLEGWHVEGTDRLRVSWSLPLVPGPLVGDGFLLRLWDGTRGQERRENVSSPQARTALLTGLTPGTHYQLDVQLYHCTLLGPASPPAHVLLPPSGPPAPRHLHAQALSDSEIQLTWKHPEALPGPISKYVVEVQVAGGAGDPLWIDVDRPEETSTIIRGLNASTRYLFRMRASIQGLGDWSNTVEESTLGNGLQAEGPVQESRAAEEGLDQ


Tests used:
Type in all cases: binding
human Tie1 Fc [1] = target: T1, human Tie1 Fc; assay: BIAcore, Tie1 Fc over IgG coated on CM5 chip; details: IgG immobilised; Human Tie1 Fc analyte
Method: The germlined E3 IgG1 stock solution 0.63 mg/ml was diluted 1/50 in a buffer of pH4.5 and the parental E3 IgG1 stock solution 0.56 mg/ml (2143-001) was diluted 1/50 in a buffer of pH 4.5. The IgG were directly coated onto a CM5 chip. The surface of the chips was activated with a 7 minute pulse of 0.05M NHS/0.2M EDC and the IgG was flowed over until 780RU germlined E3-IgG and 728 non germlined E3 IgG was coated onto the surface. All flow cells were subsequently deactivated with a 7 minute pulse of 1M ethanolamine hydrochloride pH 8.5. All analysis was performed in HBS buffer. Purified recombinant human Tie1 Fc was diluted 1/28.7 in HBS to obtain a 400 nM stock solution. Serial dilutions were made to obtain 200 nM, 100 nM, 50 nM and 25 nM Tie1 Fc stocks. For analysis of the association phase samples were injected at 30 μl/min for 8.3 minutes using kinject program. This was followed by a 40 minutes dissociation phase. Any antigen remaining associated to the surface was stripped from the IgG surface at a flow of 50 μl/min with two injections of 10 mM glycine pH 1.5 for 30 seconds. All samples were run and analyzed in duplicate
(§1) Sensorgrams were analyzed using the simultaneous ka/kd fitting program with 1:1 model in the BIAEVALUATION™ software 3.1.

mouse Tie1 = target: T2, mouse Tie1 (Mus musculus, UniProt Q06806); assay: Flow cytometry on mouse endothelial cell lines; details: MS1, Le-2, Bend3, SVEC, biotinylated antibody
T2 construct: host or cells: MS1, Le-2, Bend3, SVEC
Method: We evaluated if E3 cross reacts with mouse Tie1 in situ and thus if we can evaluate E3 activity in mouse tumor xenograft models binding to mouse endothelial cells was tested and compared with human and transfected cell lines.
Specific binding of the Tie1 antibodies and of control Mabs to mouse endothelial cells was measured by flow cytometry analysis (FACSscan, Becton Dickinson, Oxnard, Epics, Coulter). Mouse endothelial cell lines MS1, Le-2, Bend3, SVEC (ATCC, Rockville) and Tie1 transfected Le-2 cells were stained. Cell staining was modified from existing protocols. About 200,000 cells were used in each experiment: after trypsinization, cells were washed one time in PBS and resuspended PBS, 10% heat inactivated human serum (incubation buffer). […] After the final incubation step bound antibodies were detected by means of flow cytometry on a FACSCan and Epics Altra (Becton Dickinson, Oxnard, Coulter) and results analyzed.
Intracellular Tie1 was measured as described above, except for the addition of Saponin to the incubation buffer to a final concentration of 0.1% during incubations. […] The binding pattern in mouse cell lines detected by flow cytometry is different from the binding pattern in HUVEC in that in mouse cells there is a greater cell surface staining than that compared to primary human endothelial cell lines. […]

human Tie1 Fc [2] = target: T1, human Tie1 Fc; assay: BIAcore, Fab over biotinylated Tie1-Fc on streptavidin chip; details: Fab analyte; for kon: 830 RU
Method: Recombinant purified human Tie1-Fc antigen (Stock 2.45 mg/ml) was biotinylated using the EZ-link Sulfo-NHS-SS-Biotin (Pierce, Cat. 21331). The reaction was performed for 2 hours on ice in 50 mM sodium carbonate buffer, pH 9.6, in the presence of a 5-fold molar excess of biotinylating agent and was stopped by the addition of Tris-HCl, pH 7.5 (50 mM final concentration) followed by a 1-hour incubation on ice. Samples were then dialyzed against PBS. The antigen was then diluted 1/100 fold in HBS and was then captured onto a streptavidin chip. This was coated to a density of 830RU (resonance units). All analysis was performed in HBS buffer. The parental Fab E3 and germlined E3 Fab were prepared as described above. A stock solution of 0.587 mg/ml (11740 nM) was diluted 1/587 in HBS+BSA to obtain a stock of 20 nM and the germlined Fab E3 0.025 mg/ml (500 nM) was diluted 1/25 in HBS+BSA to obtain a stock of 20 nM. Serial dilutions were made of each Fab preparation to obtain 10 nM, 5 nM, 2.5 nM, and 1.25 nM solutions. For the association phase samples were injected at 30 μl/min for 4 minutes using kinject program. This was followed by a 10 minutes dissociation phase, any remaining sample was stripped from the Tie1 Fc surface at a flow of 50 μl/min with a single injection of 5 mM NaOH+1M NaCl for 18 seconds. All samples were run and analyzed in duplicate.
as §1

T2 sequence (Q06806 23-1134): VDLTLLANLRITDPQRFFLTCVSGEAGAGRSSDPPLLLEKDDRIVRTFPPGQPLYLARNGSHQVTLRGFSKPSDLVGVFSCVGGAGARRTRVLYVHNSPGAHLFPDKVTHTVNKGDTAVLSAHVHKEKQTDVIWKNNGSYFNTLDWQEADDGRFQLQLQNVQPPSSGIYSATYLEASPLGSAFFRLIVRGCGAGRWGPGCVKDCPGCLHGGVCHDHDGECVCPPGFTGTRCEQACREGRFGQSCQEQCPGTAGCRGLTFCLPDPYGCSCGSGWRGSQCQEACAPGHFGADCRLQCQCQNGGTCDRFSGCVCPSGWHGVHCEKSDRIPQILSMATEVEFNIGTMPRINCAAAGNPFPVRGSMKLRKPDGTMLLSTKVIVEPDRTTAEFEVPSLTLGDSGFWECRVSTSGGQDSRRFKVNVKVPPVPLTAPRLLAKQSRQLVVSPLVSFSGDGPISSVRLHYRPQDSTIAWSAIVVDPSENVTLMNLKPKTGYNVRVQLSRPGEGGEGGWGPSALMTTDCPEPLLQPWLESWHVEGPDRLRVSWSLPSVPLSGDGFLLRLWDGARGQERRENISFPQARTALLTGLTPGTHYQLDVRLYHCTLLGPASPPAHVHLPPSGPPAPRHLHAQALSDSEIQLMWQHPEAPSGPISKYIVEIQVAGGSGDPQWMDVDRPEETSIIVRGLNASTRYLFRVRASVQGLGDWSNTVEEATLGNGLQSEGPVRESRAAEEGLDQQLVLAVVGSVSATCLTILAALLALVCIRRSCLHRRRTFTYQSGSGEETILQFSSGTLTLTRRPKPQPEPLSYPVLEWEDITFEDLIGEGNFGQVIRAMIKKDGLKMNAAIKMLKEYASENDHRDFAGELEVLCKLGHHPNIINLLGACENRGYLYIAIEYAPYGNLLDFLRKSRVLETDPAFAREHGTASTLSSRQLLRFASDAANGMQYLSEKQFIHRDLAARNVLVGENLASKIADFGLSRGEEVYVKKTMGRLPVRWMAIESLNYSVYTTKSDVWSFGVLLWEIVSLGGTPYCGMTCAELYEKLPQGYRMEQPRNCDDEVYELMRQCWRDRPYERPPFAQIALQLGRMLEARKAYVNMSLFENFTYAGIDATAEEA

Molecule | koff (human Tie1 Fc [1]) | kon (human Tie1 Fc [1]) | binding to mouse endothelial cell lines (mouse Tie1) | koff (human Tie1 Fc [2]) | kon (human Tie1 Fc [2])
E3: human anti-Tie1 antibody from phage Fab library, reformatted as IgG; HC variable SEQ ID NO:114, LC variable SEQ ID NO:116 (antibody, V domains shown, IgG constant regions; Synthetically generated peptide) VH: EVQLLESGGGLVQPGGSLRLSCAASGFTFSMYGMVWVRQAPGKGLEWVSVISPSGGNTGYADSVKGRFTISRDNSKNTLYLQVNSLRAEDTAVYYCARAPRGYSYGYYYWGQGTLVTVSSASTKGPSVFPLAPSSKSTSGG VL: DIQMTQSPLSLSASVGDRVTITCRASQGIGHYLAWYQQKPGKVPKLLIYTASTLQSGVPSRFSGSGSGTDFTLTINSLQPEDVATYYCQQFNSYPHTFGQGTRLDIK | 3.61e-05 s⁻¹ | 6190 M⁻¹ s⁻¹ | binds to mouse endothelial cell lines |  | 
parental E3 Fab: soluble Fab fragment of the parental E3 anti-Tie1 antibody (antibody, V domains shown) VH: EVQLLESGGGLVQPGGSLRLSCAASGFTFSMYGMVWVRQAPGKGLEWVSVISPSGGNTGYADSVKGRFTISRDNSKNTLYLQVNSLRAEDTAVYYCARAPRGYSYGYYYWGQGTLVTVSSASTKGPSVFPLAPSSKSTSGG VL: DIQMTQSPLSLSASVGDRVTITCRASQGIGHYLAWYQQKPGKVPKLLIYTASTLQSGVPSRFSGSGSGTDFTLTINSLQPEDVATYYCQQFNSYPHTFGQGTRLDIK |  |  |  | 0.00061 s⁻¹ | 300000 M⁻¹ s⁻¹
DX-2210: E3 antibody in which the light chain has been germlined (antibody, V domains shown) VH: EVQLLESGGGLVQPGGSLRLSCAASGFTFSMYGMVWVRQAPGKGLEWVSVISPSGGNTGYADSVKGRFTISRDNSKNTLYLQVNSLRAEDTAVYYCARAPRGYSYGYYYWGQGTLVTVSSASTKGPSVFPLAPSSKSTSGG VL: DIQMTQSPSSLSASVGDRVTITCRASQGIGHYLAWYQQKPGKVPKLLIYTASTLQSGVPSRFSGSGSGTDFTLTISSLQPEDVATYYCQQFNSYPHTFGQGTRLEIK | 3.67e-05 s⁻¹ | 7090 M⁻¹ s⁻¹ | stained positively |  | 
germlined E3 Fab: soluble Fab of E3 with LC framework regions germlined to DPK4; LC variable SEQ ID NO:159 (antibody, V domains shown) VH: EVQLLESGGGLVQPGGSLRLSCAASGFTFSMYGMVWVRQAPGKGLEWVSVISPSGGNTGYADSVKGRFTISRDNSKNTLYLQVNSLRAEDTAVYYCARAPRGYSYGYYYWGQGTLVTVSSASTKGPSVFPLAPSSKSTSGG VL: DIQMTQSPSSLSASVGDRVTITCRASQGIGHYLAWYQQKPGKVPKLLIYTASTLQSGVPSRFSGSGSGTDFTLTISSLQPEDVATYYCQQFNSYPHTFGQGTRLEIK |  |  |  | 0.00102 s⁻¹ | 300000 M⁻¹ s⁻¹
